# Source: article PMC4770092, “Subnanometre enzyme mechanics probed by single-molecule force spectroscopy” (Nature Communications, 2016)
# B1: AdK 42-144 (Aquifex aeolicus VF5; INS144C/INS42C) (protein)
# chain: MILVFLGPPGAGKGTQAKRLAKEKGFVHISTGDILREAVQKGCTPLGKKAKEYMERGELVPDDLIIALIEEVFPKHGNVIFDGFPRTVKQAEALDEMLEKKGLKVDHVLLFEVPDEVVIERLSGRRINPETGEVYHVKYNPPPPGCVKVIQREDDKPEVIKKRLEVYREQTAPLIEYYKKKGILRIIDASKPVEEVYRQVLEVIGDGN
# notes: full length, Cys inserted between 42/43 and 144/145; N-terminal spacer …, C-terminal spacer and His6 kept; synthetic gene in pET11a, E. coli BL21(DE3); DNA handles on Cys in trap assay
# Tests used:
# Assay in all cases: coupled spectrophotometric assay
# Format in all cases: biochemical, Aquifex aeolicus
# [1] = substrate: Nc1ncnc2c1ncn2[C@@H]1O[C@H](COP(=O)(O)OP(=O)(O)O)[C@@H](O)[C@H]1O; settings: Mg-ADP/ADP
# [2] = substrate: Nc1ncnc2c1ncn2[C@@H]1O[C@H](COP(=O)(O)O)[C@@H](O)[C@H]1O
# [3] = substrate: Nc1ncnc2c1ncn2[C@@H]1O[C@H](COP(=O)(O)OP(=O)(O)OP(=O)(O)O)[C@@H](O)[C@H]1O
protein,measurement,setting,value
B1,Km,[1],360 ± 80 µM
same,Km,[2],10 µM
same,Km,[3],41 ± 11 µM
